Laboratory results taken from IntAct's records for PubMed 31515488.

B1: WW domain-containing adapter protein with coiled-coil (Homo sapiens), Q9BTA9-1 (parent)
chain: MVMYARKQQRLSDGCHDRRGDSQPYQALKYSSKSHPSSGDHRHEKMRDAGDPSPPNKMLRRSDSPENKYSDSTGHSKAKNVHTHRVRERDGGTSYSPQENSHNHSALHSSNSHSSNPSNNPSKTSDAPYDSADDWSEHISSSGKKYYYNCRTEVSQWEKPKEWLEREQRQKEANKMAVNSFPKDRDYRREVMQATATSGFASGMEDKHSSDASSLLPQNILSQTSRHNDRDYRLPRAETHSSSTPVQHPIKPVVHPTATPSTVPSSPFTLQSDHQPKKSFDANGASTLSKLPTPTSSVPAQKTERKESTSGDKPVSHSCTTPSTSSASGLNPTSAPPTSASAVPVSPVPQSPIPPLLQDPNLLRQLLPALQATLQLNNSNVDISKINEVLTAAVTQASLQSIIHKFLTAGPSAFNITSLISQAAQLSTQAQPSNQSPMSLTSDASSPRSYVSPRISTPQTNTVPIKPLISTPPVSSQPKVSTPVVKQGPVSQSATQQPVTADKQQGHEPVSPRSLQRSSSQRSPSPGPNHTSNSSNASNATVVPQNSSARSTCSLTPALAAHFSENLIKHVQGWPADHAEKQASRLREEAHNMGTIHMSEICTELKNLRSLVRVCEIQATLREQRILFLRQQIKELEKLKNQNSFMV
B2: Seipin (Homo sapiens), Q96G97-4 (parent)
chain: MSTEKVDQKEEAGEKEVCGDQIKGPDKEEEPPAAASHGQGWRPGGRAARNARPEPGARHPALPAMVNDPPVPALLWAQEVGQVLAGRARRLLLQFGVLFCTILLLLWVSVFLYGSFYYSYMPTVSHLSPVHFYYRTDCDSSTTSLCSFPVANVSLTKGGRDRVLMYGQPYRVTLELELPESPVNQDLGMFLVTISCYTRGGRIISTSSRSVMLHYRSDLLQMLDTLVFSSLLLFGFAEQKQLLEVELYADYRENSYVPTTGAIIEIHSKRIQLYGAYLRIHAHFTGLRYLLYNFPMTCAFIGVASNFTFLSVIVLFSYMQWVWGGIWPRHRFSLQVNIRKRDNSRKEVQRRISAHQPGPEGQEESTPQSDVTEDGESPEDPSGTEGQLSEEEKPDQQPLSGEEELEPEASDGSGSWEDAALLTEANLPAPAPASASAPVLETLGSSEPAGGALRQRPTCSSS
partner: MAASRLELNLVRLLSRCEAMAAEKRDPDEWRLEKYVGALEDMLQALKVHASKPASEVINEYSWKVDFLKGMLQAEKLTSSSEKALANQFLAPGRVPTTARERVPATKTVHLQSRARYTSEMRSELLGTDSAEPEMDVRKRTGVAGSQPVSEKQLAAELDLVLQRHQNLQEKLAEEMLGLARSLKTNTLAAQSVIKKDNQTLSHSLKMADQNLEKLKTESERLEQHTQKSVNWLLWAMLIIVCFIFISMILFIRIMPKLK
B3: Keratin, type II cytoskeletal 79 (Homo sapiens), Q5XKE5 (parent)
chain: MRSSVSRQTYSTKGGFSSNSASGGSGSQARTSFSSVTVSRSSGSGGGAHCGPGTGGFGSRSLYNLGGHKSISVSVAGGALLGRALGGFGFGSRAFMGQGAGRQTFGPACPPGGIQEVTVNQSLLTPLHVEIDPEIQRVRTQEREQIKTLNNKFASFIDKVRFLEQQNKVLETKWALLQEQGQNLGVTRNNLEPLFEAYLGSMRSTLDRLQSERGRLDSELRNVQDLVEDFKNKYEDEINKHTAAENEFVVLKKDVDAAYMGRMDLHGKVGTLTQEIDFLQQLYEMELSQVQTHVSNTNVVLSMDNNRNLDLDSIIAEVKAQYELIAQRSRAEAEAWYQTKYEELQVTAGKHGDNLRDTKNEIAELTRTIQRLQGEADAAKKQCQQLQTAIAEAEQRGELALKDAQKKLGDLDVALHQAKEDLTRLLRDYQELMNVKLALDVEIATYRKLLESEESRMSGECPSAVSISVTGNSTTVCGGGAASFGGGISLGGSGGATKGGFSTNVGYSTVKGGPVSAGTSILRKTTTVKTSSQRY
partner: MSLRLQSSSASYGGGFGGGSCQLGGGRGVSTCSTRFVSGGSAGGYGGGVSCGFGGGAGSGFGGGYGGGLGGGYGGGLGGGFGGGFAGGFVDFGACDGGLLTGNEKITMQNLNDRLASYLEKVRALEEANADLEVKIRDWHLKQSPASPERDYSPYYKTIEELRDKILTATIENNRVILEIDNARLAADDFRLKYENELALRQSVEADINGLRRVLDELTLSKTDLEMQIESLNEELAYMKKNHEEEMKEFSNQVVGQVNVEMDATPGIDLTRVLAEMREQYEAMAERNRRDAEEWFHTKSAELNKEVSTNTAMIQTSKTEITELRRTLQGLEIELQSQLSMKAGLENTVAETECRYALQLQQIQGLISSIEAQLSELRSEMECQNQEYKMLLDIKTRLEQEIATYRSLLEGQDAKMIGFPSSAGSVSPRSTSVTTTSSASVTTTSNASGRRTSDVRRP
B4: Zinc finger protein RFP (Homo sapiens), P14373 (parent)
chain: MASGSVAECLQQETTCPVCLQYFAEPMMLDCGHNICCACLARCWGTAETNVSCPQCRETFPQRHMRPNRHLANVTQLVKQLRTERPSGPGGEMGVCEKHREPLKLYCEEDQMPICVVCDRSREHRGHSVLPLEEAVEGFKEQIQNQLDHLKRVKDLKKRRRAQGEQARAELLSLTQMEREKIVWEFEQLYHSLKEHEYRLLARLEELDLAIYNSINGAITQFSCNISHLSSLIAQLEEKQQQPTRELLQDIGDTLSRAERIRIPEPWITPPDLQEKIHIFAQKCLFLTESLKQFTEKMQSDMEKIQELREAQLYSVDVTLDPDTAYPSLILSDNLRQVRYSYLQQDLPDNPERFNLFPCVLGSPCFIAGRHYWEVEVGDKAKWTIGVCEDSVCRKGGVTSAPQNGFWAVSLWYGKEYWALTSPMTALPLRTPLQRVGIFLDYDAGEVSFYNVTERCHTFTFSHATFCGPVRPYFSLSYSGGKSAAPLIICPMSGIDGFSGHVGNHGHSMETSP
B5: Glutathione S-transferase A2 (Homo sapiens), P09210 (parent)
chain: MAEKPKLHYSNIRGRMESIRWLLAAAGVEFEEKFIKSAEDLDKLRNDGYLMFQQVPMVEIDGMKLVQTRAILNYIASKYNLYGKDIKEKALIDMYIEGIADLGEMILLLPFSQPEEQDAKLALIQEKTKNRYFPAFEKVLKSHGQDYLVGNKLSRADIHLVELLYYVEELDSSLISSFPLLKALKTRISNLPTVKKFLQPGSPRKPPMDEKSLEESRKIFRF
partner: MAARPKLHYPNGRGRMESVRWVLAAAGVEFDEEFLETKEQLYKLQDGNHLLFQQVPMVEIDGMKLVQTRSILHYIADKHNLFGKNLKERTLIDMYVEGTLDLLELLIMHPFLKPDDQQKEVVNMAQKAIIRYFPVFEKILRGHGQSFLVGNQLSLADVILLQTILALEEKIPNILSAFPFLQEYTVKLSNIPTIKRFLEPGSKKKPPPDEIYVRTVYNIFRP

Variants of: B1
Details: with KRT15, P19012
Chain of KRT15, P19012 (P19012 whole entry): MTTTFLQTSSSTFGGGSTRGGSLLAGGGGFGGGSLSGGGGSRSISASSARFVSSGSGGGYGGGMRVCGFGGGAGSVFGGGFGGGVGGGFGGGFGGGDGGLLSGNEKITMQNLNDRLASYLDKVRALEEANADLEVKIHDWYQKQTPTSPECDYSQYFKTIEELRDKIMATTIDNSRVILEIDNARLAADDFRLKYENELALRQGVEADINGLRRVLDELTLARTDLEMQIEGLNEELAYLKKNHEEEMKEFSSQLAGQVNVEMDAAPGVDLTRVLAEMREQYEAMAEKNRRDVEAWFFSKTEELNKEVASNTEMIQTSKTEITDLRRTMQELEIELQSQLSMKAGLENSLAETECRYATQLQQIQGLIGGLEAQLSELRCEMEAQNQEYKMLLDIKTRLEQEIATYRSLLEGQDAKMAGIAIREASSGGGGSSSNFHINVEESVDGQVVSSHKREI

effect of a mutation on the interaction | Variant
with no effect | S475L

Variants of: B1
Details: with nf2l2_human NFE2L2, Q16236
Chain of nf2l2_human NFE2L2, Q16236 (Q16236 whole entry): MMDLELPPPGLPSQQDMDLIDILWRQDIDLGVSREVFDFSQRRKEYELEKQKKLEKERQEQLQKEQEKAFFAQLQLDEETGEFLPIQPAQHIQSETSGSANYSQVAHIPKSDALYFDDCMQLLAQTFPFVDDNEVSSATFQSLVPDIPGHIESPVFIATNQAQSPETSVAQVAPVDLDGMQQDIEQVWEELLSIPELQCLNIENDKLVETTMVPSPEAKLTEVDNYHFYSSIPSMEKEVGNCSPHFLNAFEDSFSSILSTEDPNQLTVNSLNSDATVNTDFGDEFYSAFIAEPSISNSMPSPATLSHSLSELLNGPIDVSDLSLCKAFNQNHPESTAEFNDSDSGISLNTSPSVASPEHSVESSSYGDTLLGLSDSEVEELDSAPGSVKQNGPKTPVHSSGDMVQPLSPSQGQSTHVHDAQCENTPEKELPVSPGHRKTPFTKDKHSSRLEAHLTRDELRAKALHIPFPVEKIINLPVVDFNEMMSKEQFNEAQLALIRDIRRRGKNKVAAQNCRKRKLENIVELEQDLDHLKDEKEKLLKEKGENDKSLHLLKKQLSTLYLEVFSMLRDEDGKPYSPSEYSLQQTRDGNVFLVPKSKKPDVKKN

effect of a mutation on the interaction | Variant
with no effect | S475L

Variants of: B1
Details: with mtus2_human MTUS2, Q5JR59
Chain of mtus2_human MTUS2, Q5JR59 (Q5JR59 whole entry): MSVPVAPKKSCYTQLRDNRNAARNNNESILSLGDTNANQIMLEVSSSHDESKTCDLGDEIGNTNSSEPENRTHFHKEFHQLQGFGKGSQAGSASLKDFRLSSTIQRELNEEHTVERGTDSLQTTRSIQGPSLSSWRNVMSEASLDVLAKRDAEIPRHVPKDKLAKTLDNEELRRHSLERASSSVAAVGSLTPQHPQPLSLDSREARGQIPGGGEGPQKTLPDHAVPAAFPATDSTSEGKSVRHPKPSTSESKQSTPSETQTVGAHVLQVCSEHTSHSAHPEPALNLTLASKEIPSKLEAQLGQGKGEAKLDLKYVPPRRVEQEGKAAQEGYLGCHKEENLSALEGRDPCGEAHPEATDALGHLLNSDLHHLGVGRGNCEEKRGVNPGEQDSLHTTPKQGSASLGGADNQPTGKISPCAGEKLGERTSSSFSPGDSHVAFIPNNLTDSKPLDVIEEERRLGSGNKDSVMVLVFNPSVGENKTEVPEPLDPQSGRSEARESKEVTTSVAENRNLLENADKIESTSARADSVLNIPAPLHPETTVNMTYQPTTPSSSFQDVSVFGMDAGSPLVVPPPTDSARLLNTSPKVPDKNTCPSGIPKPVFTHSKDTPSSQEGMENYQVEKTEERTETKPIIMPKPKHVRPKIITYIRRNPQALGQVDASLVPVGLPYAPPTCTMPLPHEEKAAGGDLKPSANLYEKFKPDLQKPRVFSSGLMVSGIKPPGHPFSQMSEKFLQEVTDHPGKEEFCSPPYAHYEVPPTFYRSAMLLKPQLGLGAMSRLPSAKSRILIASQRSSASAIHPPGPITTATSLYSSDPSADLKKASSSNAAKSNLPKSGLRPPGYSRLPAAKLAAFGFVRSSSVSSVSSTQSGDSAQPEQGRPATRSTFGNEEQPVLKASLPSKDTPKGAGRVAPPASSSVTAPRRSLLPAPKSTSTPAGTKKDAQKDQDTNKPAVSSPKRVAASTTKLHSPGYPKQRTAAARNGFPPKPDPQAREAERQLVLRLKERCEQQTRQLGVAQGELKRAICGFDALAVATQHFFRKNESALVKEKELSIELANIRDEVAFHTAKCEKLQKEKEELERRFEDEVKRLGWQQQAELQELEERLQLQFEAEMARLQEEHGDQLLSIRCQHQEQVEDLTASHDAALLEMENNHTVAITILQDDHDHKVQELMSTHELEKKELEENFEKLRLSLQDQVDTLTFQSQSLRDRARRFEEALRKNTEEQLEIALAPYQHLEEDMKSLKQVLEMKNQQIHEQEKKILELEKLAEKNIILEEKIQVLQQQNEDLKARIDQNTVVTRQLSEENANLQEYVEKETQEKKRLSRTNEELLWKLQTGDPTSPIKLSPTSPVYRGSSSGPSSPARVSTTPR

effect of a mutation on the interaction | Variant
with no effect | S475L

Variants of: B2
Details: with use1_human USE1, Q9NZ43

effect of a mutation on the interaction | Variant
with no effect | MSTEKVDQKEEAGEKEVCGEQIKGPDKEEEPPAAASHGQGWRPGGRAARNARPEPGARHPALPAMVNDPPVPALLWAQEVGQVLAGRARRLLLQFGVLFCTILLLLWVSVFLYGSFYYSYMPTVSHLSPVHFYYRTDCDSSTTSLCSFPVANVSLTKGGRDRVLMYGQPYRVTLELELPESPVNQDLGMFLVTISCYTRGGRIISTSSRSVMLHYRSDLLQMLDTLVFSSLLLFGFAEQKQLLEVELYADYRENSYVPTTGAIIEIHSKRIQLYGAYLRIHAHFTGLRYLLYNFPMTCAFIGVASNFTFLSVIVLFSYMQWVWGGIWPRHRFSLQVNIRKRDNSRKEVQRRISAHQPGPEGQEESTPQSDVTEDGESPEDPSGTEGQLSEEEKPDQQPLSGEEELEPEASDGSGSWEDAALLTEANLPAPAPASASAPVLETLGSSEPAGGALRQRPTCSSS [D20E]

Variants of: B3
Details: with KRT13, P13646

effect of a mutation on the interaction | Variant
with no effect | MRSSVSRQTYSTKGGFSSNSASGGSGSQARTSFSSVTVSRSSGSGGGAHCGPGTGGFGSRSLYNLGGHKSISVSVAGGALLGRALEGFGFGSRAFMGQGAGRQTFGPACPPGGIQEVTVNQSLLTPLHVEIDPEIQRVRTQEREQIKTLNNKFASFIDKVRFLEQQNKVLETKWALLQEQGQNLGVTRNNLEPLFEAYLGSMRSTLDRLQSERGRLDSELRNVQDLVEDFKNKYEDEINKHTAAENEFVVLKKDVDAAYMGRMDLHGKVGTLTQEIDFLQQLYEMELSQVQTHVSNTNVVLSMDNNRNLDLDSIIAEVKAQYELIAQRSRAEAEAWYQTKYEELQVTAGKHGDNLRDTKNEIAELTRTIQRLQGEADAAKKQCQQLQTAIAEAEQRGELALKDAQKKLGDLDVALHQAKEDLTRLLRDYQELMNVKLALDVEIATYRKLLESEESRMSGECPSAVSISVTGNSTTVCGGGAASFGGGISLGGSGGATKGGFSTNVGYSTVKGGPVSAGTSILRKTTTVKTSSQRY [G86E]

Variants of: B4
Details: with if4e_human EIF4E

effect of a mutation on the interaction | Variant
with no effect | MASGSVAECLQQETTCPVCLQYFAEPMMLDCGHNICCACLARCWGTAETNVSCPQCRETFPQRHMRPNRHLANVTQLVKQLRTERPSGPGGEMGVCEKHREPLKLYCEEDQMPICVVCDRSREHRGHSVLPLEEAVEGFKEQIQNQLDHLKRVKDLKKRRRAQGEQARAELLSLTQMEREKIVWEFEQLYHSLKEHEYRLLARLEELDLAIYNSINGAITQFSCNISHLSSLIAQLEEKQQQPTRELLQDIGDTLSRAERIRIPEPWITPPDLQEKIHIFAQKCLFLTESLKQFTEKMQSDMEKIQELREAQLYSVDVTLDPDTAYPSLILSDNLRQVRYSYLQQDLPDNPERFSLFPCVLGSPCFIAGRHYWEVEVGDKAKWTIGVCEDSVCRKGGVTSAPQNGFWAVSLWYGKEYWALTSPMTALPLRTPLQRVGIFLDYDAGEVSFYNVTERCHTFTFSHATFCGPVRPYFSLSYSGGKSAAPLIICPMSGIDGFSGHVGNHGHSMETSP [N355S]

Variants of: B4
Details: with fhl3_human FHL3, Q13643
Chain of fhl3_human FHL3, Q13643 (Q13643 whole entry): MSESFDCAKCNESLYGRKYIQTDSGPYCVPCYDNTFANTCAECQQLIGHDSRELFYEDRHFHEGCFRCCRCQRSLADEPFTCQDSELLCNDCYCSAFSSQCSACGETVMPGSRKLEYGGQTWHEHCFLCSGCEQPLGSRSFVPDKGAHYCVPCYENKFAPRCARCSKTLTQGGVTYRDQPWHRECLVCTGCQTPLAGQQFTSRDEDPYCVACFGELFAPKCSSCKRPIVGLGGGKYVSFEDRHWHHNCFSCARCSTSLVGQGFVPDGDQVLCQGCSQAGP

effect of a mutation on the interaction | Variant
disrupting interaction strength | MASGSVAECLQQETTCPVCLQYFAEPMMLDCGHNICCACLARCWGTAETNVSCPQCRETFPQRHMRPNRHLANVTQLVKQLRTERPSGPGGEMGVCEKHREPLKLYCEEDQMPICVVCDRSREHRGHSVLPLEEAVEGFKEQIQNQLDHLKRVKDLKKRRRAQGEQARAELLSLTQMEREKIVWEFEQLYHSLKEHEYRLLARLEELDLAIYNSINGAITQFSCNISHLSSLIAQLEEKQQQPTRELLQDIGDTLSRAERIRIPEPWITPPDLQEKIHIFAQKCLFLTESLKQFTEKMQSDMEKIQELREAQLYSVDVTLDPDTAYPSLILSDNLRQVRYSYLQQDLPDNPERFSLFPCVLGSPCFIAGRHYWEVEVGDKAKWTIGVCEDSVCRKGGVTSAPQNGFWAVSLWYGKEYWALTSPMTALPLRTPLQRVGIFLDYDAGEVSFYNVTERCHTFTFSHATFCGPVRPYFSLSYSGGKSAAPLIICPMSGIDGFSGHVGNHGHSMETSP [N355S]

Variants of: B4
Details: with bmp7_human BMP7, P18075
Chain of bmp7_human BMP7, P18075 (P18075 whole entry): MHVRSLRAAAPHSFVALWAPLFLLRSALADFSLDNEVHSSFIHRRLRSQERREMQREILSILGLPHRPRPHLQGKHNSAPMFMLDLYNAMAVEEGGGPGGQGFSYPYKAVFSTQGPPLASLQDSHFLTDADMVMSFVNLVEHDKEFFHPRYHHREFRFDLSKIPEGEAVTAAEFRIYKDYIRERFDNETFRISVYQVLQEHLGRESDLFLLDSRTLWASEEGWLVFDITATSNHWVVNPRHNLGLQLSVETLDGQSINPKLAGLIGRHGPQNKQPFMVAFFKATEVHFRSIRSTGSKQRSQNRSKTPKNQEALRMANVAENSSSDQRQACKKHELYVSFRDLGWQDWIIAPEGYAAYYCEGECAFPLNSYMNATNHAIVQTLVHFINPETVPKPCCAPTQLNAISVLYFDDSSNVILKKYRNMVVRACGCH

effect of a mutation on the interaction | Variant
with no effect | MASGSVAECLQQETTCPVCLQYFAEPMMLDCGHNICCACLARCWGTAETNVSCPQCRETFPQRHMRPNRHLANVTQLVKQLRTERPSGPGGEMGVCEKHREPLKLYCEEDQMPICVVCDRSREHRGHSVLPLEEAVEGFKEQIQNQLDHLKRVKDLKKRRRAQGEQARAELLSLTQMEREKIVWEFEQLYHSLKEHEYRLLARLEELDLAIYNSINGAITQFSCNISHLSSLIAQLEEKQQQPTRELLQDIGDTLSRAERIRIPEPWITPPDLQEKIHIFAQKCLFLTESLKQFTEKMQSDMEKIQELREAQLYSVDVTLDPDTAYPSLILSDNLRQVRYSYLQQDLPDNPERFSLFPCVLGSPCFIAGRHYWEVEVGDKAKWTIGVCEDSVCRKGGVTSAPQNGFWAVSLWYGKEYWALTSPMTALPLRTPLQRVGIFLDYDAGEVSFYNVTERCHTFTFSHATFCGPVRPYFSLSYSGGKSAAPLIICPMSGIDGFSGHVGNHGHSMETSP [N355S]

Variants of: B4
Details: with ercc3_human ERCC3, P19447
Chain of ercc3_human ERCC3, P19447 (P19447 whole entry): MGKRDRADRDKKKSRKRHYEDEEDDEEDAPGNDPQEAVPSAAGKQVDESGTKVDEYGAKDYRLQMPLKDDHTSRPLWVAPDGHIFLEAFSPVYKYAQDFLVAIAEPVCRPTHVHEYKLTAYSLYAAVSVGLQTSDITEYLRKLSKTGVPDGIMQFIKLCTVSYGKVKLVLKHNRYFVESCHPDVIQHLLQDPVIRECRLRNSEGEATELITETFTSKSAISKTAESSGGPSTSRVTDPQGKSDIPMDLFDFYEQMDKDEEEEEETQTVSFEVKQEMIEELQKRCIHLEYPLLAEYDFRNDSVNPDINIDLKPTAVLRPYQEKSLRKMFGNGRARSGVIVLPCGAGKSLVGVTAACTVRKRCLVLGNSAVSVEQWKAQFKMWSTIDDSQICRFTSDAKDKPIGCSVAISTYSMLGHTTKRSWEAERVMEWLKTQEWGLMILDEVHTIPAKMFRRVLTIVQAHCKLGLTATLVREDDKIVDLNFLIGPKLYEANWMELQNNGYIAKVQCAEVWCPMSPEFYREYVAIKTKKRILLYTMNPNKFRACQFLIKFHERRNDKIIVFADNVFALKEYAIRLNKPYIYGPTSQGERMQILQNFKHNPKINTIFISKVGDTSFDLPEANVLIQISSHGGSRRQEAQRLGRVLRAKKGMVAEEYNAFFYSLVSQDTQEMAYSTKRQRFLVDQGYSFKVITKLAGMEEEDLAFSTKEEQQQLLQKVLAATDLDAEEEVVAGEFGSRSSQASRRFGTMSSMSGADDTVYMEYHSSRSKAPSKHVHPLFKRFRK

effect of a mutation on the interaction | Variant
with no effect | MASGSVAECLQQETTCPVCLQYFAEPMMLDCGHNICCACLARCWGTAETNVSCPQCRETFPQRHMRPNRHLANVTQLVKQLRTERPSGPGGEMGVCEKHREPLKLYCEEDQMPICVVCDRSREHRGHSVLPLEEAVEGFKEQIQNQLDHLKRVKDLKKRRRAQGEQARAELLSLTQMEREKIVWEFEQLYHSLKEHEYRLLARLEELDLAIYNSINGAITQFSCNISHLSSLIAQLEEKQQQPTRELLQDIGDTLSRAERIRIPEPWITPPDLQEKIHIFAQKCLFLTESLKQFTEKMQSDMEKIQELREAQLYSVDVTLDPDTAYPSLILSDNLRQVRYSYLQQDLPDNPERFSLFPCVLGSPCFIAGRHYWEVEVGDKAKWTIGVCEDSVCRKGGVTSAPQNGFWAVSLWYGKEYWALTSPMTALPLRTPLQRVGIFLDYDAGEVSFYNVTERCHTFTFSHATFCGPVRPYFSLSYSGGKSAAPLIICPMSGIDGFSGHVGNHGHSMETSP [N355S]

Variants of: B5
Details: with gsta4_human GSTA4, O15217

effect of a mutation on the interaction | Variant
with no effect | MAEKPKLHYSNIRGRMESIRWLLAAAGVEFEEKFIKSAEDLDKLRNDGYLMFQQVPMVEIDGMKLVQTRAILNYIASKYNLYGKDIKEKALIDMYIEGIADLGEMILLLPFSQPEEQDAKLALIQEKTKNRYFPAFEKVLKSHGQDYLVGNKLSRADIHLVELLYYVEELDSSLISSFPLLKALKTRISNLPTVKKFLQPGSPRKPPMDAKSLEESRKIFRF [E210A]
